# Results reported in patent US20250076311A1 (Chugai, published 2025).
# T1: human FcγRIIb constitutively expressed on MDCK cells (human, UniProt P31994 43-310)
# T1 sequence (looked up): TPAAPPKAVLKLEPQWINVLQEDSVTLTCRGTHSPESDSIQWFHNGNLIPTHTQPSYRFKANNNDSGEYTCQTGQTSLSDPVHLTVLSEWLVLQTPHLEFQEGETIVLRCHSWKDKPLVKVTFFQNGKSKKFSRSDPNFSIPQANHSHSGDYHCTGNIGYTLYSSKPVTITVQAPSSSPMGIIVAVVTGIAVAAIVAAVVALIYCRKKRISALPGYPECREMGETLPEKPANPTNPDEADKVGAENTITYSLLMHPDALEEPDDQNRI
# T2: soluble mouse FcγRII, His-tagged (mouse, UniProt P08101 30-210, limits assumed)
# T2 construct: Captured on the chip through an anti-His antibody
# T2 sequence (looked up): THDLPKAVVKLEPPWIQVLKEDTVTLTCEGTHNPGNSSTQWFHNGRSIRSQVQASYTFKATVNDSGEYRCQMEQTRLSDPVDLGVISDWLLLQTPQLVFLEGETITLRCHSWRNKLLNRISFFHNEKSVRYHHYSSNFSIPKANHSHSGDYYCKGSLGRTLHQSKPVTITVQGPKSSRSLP
# Legend:
# [1] = molecular target: T1, human FcγRIIb constitutively expressed …; assay: cell-based or functional assay
# [2] = molecular target: T2, soluble mouse FcγRII, His-tagged; assay: SPR, mouse FcγRII captured via His-tag, antigen-antibody complex injected, pH 7.4, 25 C
# Description: Regarding the produced Fc region variant-containing antibodies, binding assays between soluble mouse FcγRII and antigen-antibody complexes were performed using BIACORE® T200 (GE Healthcare). Soluble mouse FcγRII was produced in the form of a His-tagged molecule by a method known to those skilled in the art. An appropriate amount of an anti-His antibody was fixed onto Sensor chip CM5 (GE Healthcare) by the amine coupling method using a His capture kit (GE Healthcare) to capture mouse FcγRII. Next, an antibody-antigen complex and a running buffer (as a reference solution) were injected, and interaction was allowed to take place with the mouse FcγRII captured onto the sensor chip. 20 mM N-(2-Acetamido)-2-aminoethanesulfonic acid, 150 mM NaCl, 1.2 mM CaCl₂), and 0.05% (w/v) TWEEN® 20 at pH7.4 was used as the running buffer, and the respective buffer was also used to dilute the soluble mouse FcγRII. To regenerate the sensor chip, 10 mM glycine-HCl at pH1.5 was used. All measurements were carried out at 25° C. […] To calculate the parameters, the BIACORE® T100 Evaluation Software (GE Healthcare) was used.
Binder,celluar uptake (labelled human latent myostatin taken up as antigen-antibody complex) [1],"biacore IC binding (relative, SG1 = 1.00) [2]"
"M103205H795-P1500m/M103202L889-SK1 (antibody, human IgG1, kappa, name in EU numbering) heavy: not shown light: DIVMTQSPATLSLSPGERATLSCTSSQSVYHANWLSWFQQKPGQPPKLLIYWASTLAYGVPSRFSGSGSGTDFTLTISSLQPEDAATYYCAGGYGGGRYAFGQGTKVEIKRTVAAPSVFIFPPSDEQLKSGTASVVCLLNNFYPREAKVQWKVDNALQSGNSQESVTEQDSKDSTYSLSSTLTLSKADYEKHKVYACEVTHQGLSSPVTKSFNRGEC",1.82 relative to SG1 = 1.00,1.32 relative to SG1
"M103205H795-P1535m/M103202L889-SK1 (antibody, human IgG1, kappa, name in EU numbering, copies: 2 + 2) heavy: not shown light: DIVMTQSPATLSLSPGERATLSCTSSQSVYHANWLSWFQQKPGQPPKLLIYWASTLAYGVPSRFSGSGSGTDFTLTISSLQPEDAATYYCAGGYGGGRYAFGQGTKVEIKRTVAAPSVFIFPPSDEQLKSGTASVVCLLNNFYPREAKVQWKVDNALQSGNSQESVTEQDSKDSTYSLSSTLTLSKADYEKHKVYACEVTHQGLSSPVTKSFNRGEC",2.49 relative to SG1 = 1.00,1.11 relative to SG1
"M103205H795-P1526m/M103202L889-SK1 (antibody, human IgG1, kappa, name in EU numbering, copies: 2 + 2) heavy: not shown light: DIVMTQSPATLSLSPGERATLSCTSSQSVYHANWLSWFQQKPGQPPKLLIYWASTLAYGVPSRFSGSGSGTDFTLTISSLQPEDAATYYCAGGYGGGRYAFGQGTKVEIKRTVAAPSVFIFPPSDEQLKSGTASVVCLLNNFYPREAKVQWKVDNALQSGNSQESVTEQDSKDSTYSLSSTLTLSKADYEKHKVYACEVTHQGLSSPVTKSFNRGEC",1.2 relative to SG1 = 1.00,1.04 relative to SG1
"M103205H795-P1533m/M103202L889-SK1 (antibody, human IgG1, kappa, name in EU numbering, copies: 2 + 2) heavy: not shown light: DIVMTQSPATLSLSPGERATLSCTSSQSVYHANWLSWFQQKPGQPPKLLIYWASTLAYGVPSRFSGSGSGTDFTLTISSLQPEDAATYYCAGGYGGGRYAFGQGTKVEIKRTVAAPSVFIFPPSDEQLKSGTASVVCLLNNFYPREAKVQWKVDNALQSGNSQESVTEQDSKDSTYSLSSTLTLSKADYEKHKVYACEVTHQGLSSPVTKSFNRGEC",3.52 relative to SG1 = 1.00,1.18 relative to SG1
"M103205H795-P1524m/M103202L889-SK1 (antibody, human IgG1, kappa, name in EU numbering) heavy: not shown light: DIVMTQSPATLSLSPGERATLSCTSSQSVYHANWLSWFQQKPGQPPKLLIYWASTLAYGVPSRFSGSGSGTDFTLTISSLQPEDAATYYCAGGYGGGRYAFGQGTKVEIKRTVAAPSVFIFPPSDEQLKSGTASVVCLLNNFYPREAKVQWKVDNALQSGNSQESVTEQDSKDSTYSLSSTLTLSKADYEKHKVYACEVTHQGLSSPVTKSFNRGEC",3.66 relative to SG1 = 1.00,1.4 relative to SG1
"M103205H795-P1534m/M103202L889-SK1 (antibody, human IgG1, kappa, name in EU numbering, copies: 2 + 2) heavy: not shown light: DIVMTQSPATLSLSPGERATLSCTSSQSVYHANWLSWFQQKPGQPPKLLIYWASTLAYGVPSRFSGSGSGTDFTLTISSLQPEDAATYYCAGGYGGGRYAFGQGTKVEIKRTVAAPSVFIFPPSDEQLKSGTASVVCLLNNFYPREAKVQWKVDNALQSGNSQESVTEQDSKDSTYSLSSTLTLSKADYEKHKVYACEVTHQGLSSPVTKSFNRGEC",3.12 relative to SG1 = 1.00,1.12 relative to SG1
"M103205H795-P1532m/M103202L889-SK1 (antibody, human IgG1, kappa, name in EU numbering, copies: 2 + 2) heavy: not shown light: DIVMTQSPATLSLSPGERATLSCTSSQSVYHANWLSWFQQKPGQPPKLLIYWASTLAYGVPSRFSGSGSGTDFTLTISSLQPEDAATYYCAGGYGGGRYAFGQGTKVEIKRTVAAPSVFIFPPSDEQLKSGTASVVCLLNNFYPREAKVQWKVDNALQSGNSQESVTEQDSKDSTYSLSSTLTLSKADYEKHKVYACEVTHQGLSSPVTKSFNRGEC",4.16 relative to SG1 = 1.00,1.23 relative to SG1
"M103205H795-P1531m/M103202L889-SK1 (antibody, human IgG1, kappa, name in EU numbering, copies: 2 + 2) heavy: not shown light: DIVMTQSPATLSLSPGERATLSCTSSQSVYHANWLSWFQQKPGQPPKLLIYWASTLAYGVPSRFSGSGSGTDFTLTISSLQPEDAATYYCAGGYGGGRYAFGQGTKVEIKRTVAAPSVFIFPPSDEQLKSGTASVVCLLNNFYPREAKVQWKVDNALQSGNSQESVTEQDSKDSTYSLSSTLTLSKADYEKHKVYACEVTHQGLSSPVTKSFNRGEC",2.35 relative to SG1 = 1.00,1.01 relative to SG1
"M103205H795-P1525m/M103202L889-SK1 (antibody, human IgG1, kappa, name in EU numbering) heavy: not shown light: DIVMTQSPATLSLSPGERATLSCTSSQSVYHANWLSWFQQKPGQPPKLLIYWASTLAYGVPSRFSGSGSGTDFTLTISSLQPEDAATYYCAGGYGGGRYAFGQGTKVEIKRTVAAPSVFIFPPSDEQLKSGTASVVCLLNNFYPREAKVQWKVDNALQSGNSQESVTEQDSKDSTYSLSSTLTLSKADYEKHKVYACEVTHQGLSSPVTKSFNRGEC",3.55 relative to SG1 = 1.00,1.31 relative to SG1
"M103205H795-P1523m/M103202L889-SK1 (antibody, human IgG1, kappa, name in EU numbering, copies: 2 + 2) heavy: not shown light: DIVMTQSPATLSLSPGERATLSCTSSQSVYHANWLSWFQQKPGQPPKLLIYWASTLAYGVPSRFSGSGSGTDFTLTISSLQPEDAATYYCAGGYGGGRYAFGQGTKVEIKRTVAAPSVFIFPPSDEQLKSGTASVVCLLNNFYPREAKVQWKVDNALQSGNSQESVTEQDSKDSTYSLSSTLTLSKADYEKHKVYACEVTHQGLSSPVTKSFNRGEC",1.91 relative to SG1 = 1.00,1.19 relative to SG1
"M103205H795-P1522m/M103202L889-SK1 (antibody, human IgG1, kappa, name in EU numbering, copies: 2 + 2) heavy: not shown light: DIVMTQSPATLSLSPGERATLSCTSSQSVYHANWLSWFQQKPGQPPKLLIYWASTLAYGVPSRFSGSGSGTDFTLTISSLQPEDAATYYCAGGYGGGRYAFGQGTKVEIKRTVAAPSVFIFPPSDEQLKSGTASVVCLLNNFYPREAKVQWKVDNALQSGNSQESVTEQDSKDSTYSLSSTLTLSKADYEKHKVYACEVTHQGLSSPVTKSFNRGEC",2.13 relative to SG1 = 1.00,1.24 relative to SG1
"M103205H795-P1527m/M103202L889-SK1 (antibody, human IgG1, kappa, name in EU numbering, copies: 2 + 2) heavy: not shown light: DIVMTQSPATLSLSPGERATLSCTSSQSVYHANWLSWFQQKPGQPPKLLIYWASTLAYGVPSRFSGSGSGTDFTLTISSLQPEDAATYYCAGGYGGGRYAFGQGTKVEIKRTVAAPSVFIFPPSDEQLKSGTASVVCLLNNFYPREAKVQWKVDNALQSGNSQESVTEQDSKDSTYSLSSTLTLSKADYEKHKVYACEVTHQGLSSPVTKSFNRGEC",0.92 relative to SG1 = 1.00,0.98 relative to SG1
"M103205H795-P1501m/M103202L889-SK1 (antibody, human IgG1, kappa, name in EU numbering, copies: 2 + 2) heavy: not shown light: DIVMTQSPATLSLSPGERATLSCTSSQSVYHANWLSWFQQKPGQPPKLLIYWASTLAYGVPSRFSGSGSGTDFTLTISSLQPEDAATYYCAGGYGGGRYAFGQGTKVEIKRTVAAPSVFIFPPSDEQLKSGTASVVCLLNNFYPREAKVQWKVDNALQSGNSQESVTEQDSKDSTYSLSSTLTLSKADYEKHKVYACEVTHQGLSSPVTKSFNRGEC",2.4 relative to SG1 = 1.00,1.82 relative to SG1
"M103205H795-P1530m/M103202L889-SK1 (antibody, human IgG1, kappa, name in EU numbering, copies: 2 + 2) heavy: not shown light: DIVMTQSPATLSLSPGERATLSCTSSQSVYHANWLSWFQQKPGQPPKLLIYWASTLAYGVPSRFSGSGSGTDFTLTISSLQPEDAATYYCAGGYGGGRYAFGQGTKVEIKRTVAAPSVFIFPPSDEQLKSGTASVVCLLNNFYPREAKVQWKVDNALQSGNSQESVTEQDSKDSTYSLSSTLTLSKADYEKHKVYACEVTHQGLSSPVTKSFNRGEC",3.12 relative to SG1 = 1.00,1.09 relative to SG1
"M103205H795-P1529m/M103202L889-SK1 (antibody, human IgG1, kappa, name in EU numbering, copies: 2 + 2) heavy: not shown light: DIVMTQSPATLSLSPGERATLSCTSSQSVYHANWLSWFQQKPGQPPKLLIYWASTLAYGVPSRFSGSGSGTDFTLTISSLQPEDAATYYCAGGYGGGRYAFGQGTKVEIKRTVAAPSVFIFPPSDEQLKSGTASVVCLLNNFYPREAKVQWKVDNALQSGNSQESVTEQDSKDSTYSLSSTLTLSKADYEKHKVYACEVTHQGLSSPVTKSFNRGEC",2.86 relative to SG1 = 1.00,1.08 relative to SG1
"M103205H795-P1528m/M103202L889-SK1 (antibody, human IgG1, kappa, name in EU numbering, copies: 2 + 2) heavy: not shown light: DIVMTQSPATLSLSPGERATLSCTSSQSVYHANWLSWFQQKPGQPPKLLIYWASTLAYGVPSRFSGSGSGTDFTLTISSLQPEDAATYYCAGGYGGGRYAFGQGTKVEIKRTVAAPSVFIFPPSDEQLKSGTASVVCLLNNFYPREAKVQWKVDNALQSGNSQESVTEQDSKDSTYSLSSTLTLSKADYEKHKVYACEVTHQGLSSPVTKSFNRGEC",3.02 relative to SG1 = 1.00,1.12 relative to SG1
